This assay concerns the target T1, recombinant hexahistidine-tagged ScSec4 (S. cerevisiae, UniProt P07560 1-215).
T1 sequence: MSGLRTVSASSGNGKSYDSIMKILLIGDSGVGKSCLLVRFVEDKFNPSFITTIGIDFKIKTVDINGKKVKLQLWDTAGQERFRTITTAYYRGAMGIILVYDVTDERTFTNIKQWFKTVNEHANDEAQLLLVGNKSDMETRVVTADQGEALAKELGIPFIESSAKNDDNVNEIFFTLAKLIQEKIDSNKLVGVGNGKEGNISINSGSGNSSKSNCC
Kind of assay: […]) in EDTA binding buffer.

This note sets out measurements from PMC2847530 (Molecular Biology of the Cell, 2010).

B1: GST-ScSec2^1-160 (domain or fragment)
chain: MDASEEAKRVSIQVTSLSTQLIESVDKQSHLEEQLNKSLKTIASQKAAIENYNQLKEDYNTLKRELSDRDDEVKRLREDIAKENELRTKAEEEADKLNKEVEDLTASLFDEANNMVADARKEKYAIEILNKRLTEQLREKDTLLDTLTLQLKNLKKVMHS
B1: the binding result is “binds”.
